The chains are these.
B1: TPR 5TU (parent)
chain: GGAUCUUCUCGAUCUAACAAAAAAGACAAAUCUGCCACAAAGCUUGAGAGCAUCUUCGGAUGCAGAGGCGGCAGCCUUCGGUGGCGCGAUAGCGCCAACGUUCUCAACUAUGACACGCAAAACGCGUGCUCCGUUGAAUGGAGUUUAUCAUG

Variants at the floor of the assay were thinned out.

Variants of B1 are the subject of this data set. The experiment in a line: polymerase ribozyme fitness, log enrichment relative to wild type (log ratio); higher = more active; in vitro selection for triplet polymerase activity. In outline: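 The heterodimeric triplet polymerase ribozyme's subunits were each mutagenized into PCR-built libraries and transcribed. Every library was selected once, in triplicate, by annealing with a biotinylated primer, the partner subunit and triplets, incubating frozen at −7 °C, gel-excising extended constructs, capturing on streptavidin beads and running RT-PCR. Input and output libraries were Illumina-sequenced, with genotypes kept only at ≥10 input reads and ≥1 read per output. Fitness, from inverse-variance-weighted replicate averages, is the base-2 logarithm of genotype enrichment over wild-type enrichment.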
Turning to U33C C36A U55A G83A A89G A142U U148C, the “polymerase ribozyme fitness (log ratio)” value is at most -4.2.
Next, U15C A22G G42A G84A G133U: at most -4.2; A3U C76U G124C G141C: -3.96; A39G G42A G88C: at most -4.2.
Next, U31A C57U C87U A89G G117A: -3.86; G25U C69G G83U C95U: -3; G11U C51U A113U C132A U139G U146A: at most -4.2.
On to A119U C129U, for which the “polymerase ribozyme fitness (log ratio)” value is 0.265.
The same measure for C14G A30U U33G A49C A52U C72G A73G C87U U144G: at most -4.2; for U4A C38A U53G C85U G94C A107G A137C G140A: at most -4.2.
Next, U7G G11C U33C A64U C96A A122G G124A G140U: at most -4.2.
The same measure for U139G A150C: -3.84.
Consider A22U A49C C69G G70C U101A, for which the “polymerase ribozyme fitness (log ratio)” value was at most -4.2.
Next, A16U A60C U61A A66C: at most -4.2.
The same measure for G48C A91G C105U A147G: at most -4.2.
Regarding U33G G117A U134C, the “polymerase ribozyme fitness (log ratio)” value was -2.88.
In the case of U7A G11A A41G A66C U77C C85U A106C U151A, the “polymerase ribozyme fitness (log ratio)” value is at most -4.2.
The same measure for U56G C93U A107G A120U: -4.12; for A16G U45A C72U C93G U151A: at most -4.2.
The same measure for U4C C10G A28C A49C G86A C99G U104G: at most -4.2.
The same measure for A3C C10G A49C C54U A60U A91C G100A G136U U139C: at most -4.2.
Turning to C38U U55G G83U U135C, the “polymerase ribozyme fitness (log ratio)” value was -1.98.
The same measure for C8U A21C G25U A97U: at most -4.2; for U82G G94U: -0.833; for A30U C54A A97U C116U G117U: at most -4.2.
The same measure for C57A G70A G86U C96A C99U U134C U146C: at most -4.2; for C116U C125U U146C: -0.74; for A52U G86U C105U: -1.83.
Regarding C93A U146C, the “polymerase ribozyme fitness (log ratio)” value is -2.18.
The same measure for C57A U90A A91U A138U: at most -4.2; for A19U A23C C27A C85A: at most -4.2; for A26G: -2.11.
As for A39U C43A C75G C87U C118U, the “polymerase ribozyme fitness (log ratio)” value was at most -4.2.
The same measure for U31C A39C C57A C76G C95G C131U U144G: at most -4.2; for G48C G94A: -0.224; for G34U A40G U55G U56A U101A U102G G126A: at most -4.2.
Next, C5G A29G G46U A60G: at most -4.2; A47C G92U C105U C131G: at most -4.2.
For C129G U134G, the “polymerase ribozyme fitness (log ratio)” value is -3.81.
Next, A26U A39U G58A A66C C93U C149G: at most -4.2; A17U U146C: -0.884; A3U C8A C18U A47C A49U C93U U102G A107G G133U: at most -4.2.
The same measure for U6C A37C C93U: -3.12.
As to C8G U55A, the “polymerase ribozyme fitness (log ratio)” value is -2.91.
Turning to A26C C93G C114U, the “polymerase ribozyme fitness (log ratio)” value was -4.19.
Next, G84U C129U: -1.42; A19C C93U: 0.111; A23G A41C U90G A110G: at most -4.2.
The same measure for A52C C85G C87U G133A G143C: -4.07; for C96U U148G: -3.13; for G58U G86C: -1.98.
As to A39G G50C C51G G58A C93G U139G, the “polymerase ribozyme fitness (log ratio)” value is at most -4.2.
The same measure for A89C C95G: -3.24.
For C51U C108U, the “polymerase ribozyme fitness (log ratio)” value is -3.72.
Next, C36A A47C G59U: at most -4.2; G48A G83U U134C: -1.42.
Turning to A119U, the “polymerase ribozyme fitness (log ratio)” value is -0.546.
Next, G58U G141A: 1.05.
The same measure for G50A U55A G70A G83C U101A U104A C105G G124U: at most -4.2.
The same measure for G59U C75U C76U C93G A115U: at most -4.2; for A23G A37G A39G U44A A64U C75U C95U C108A A142U: at most -4.2.
On to U9A A22C A37U U45A U53A G84A A147U, for which the “polymerase ribozyme fitness (log ratio)” value was at most -4.2.
The same measure for C63U G83C U102A A142G A150C: at most -4.2; for A52G A73U G84A: -2.15.
The same measure for G59A C75G G94U C95U: -3.76; for C14U A26C G48C U53G C54A C93A U145A U148C: at most -4.2.
Next, A91U C108U A113U C118U C149G: at most -4.2; C87A A91G G152U: -4.13; A73C G81C A110G A121G: at most -4.2.
As to C5G C38U G50A, the “polymerase ribozyme fitness (log ratio)” value is -1.8.
The same measure for A21C C36G A41C C72U A73U U78G C96U C118U G128A A142U: at most -4.2; for A39U G80C A91U: at most -4.2; for C5U A23U C32U G74U G83A C114U G136U C149U: at most -4.2.
Turning to A41C U61A A138U, the “polymerase ribozyme fitness (log ratio)” value was -3.7.
As for C5U A40C C54G G92A A121U C132U U146A, the “polymerase ribozyme fitness (log ratio)” value is at most -4.2.
Next, A49C G71C U101G A137U A150U: at most -4.2; C57U A91G: -2.92.
Next, U4C U6G U55A C93G C103G A150U: at most -4.2.
Next, C8U A47G: -3.73; C69A G83C U101G: at most -4.2; G50U G86C A120C: -3.03.
As for U56G U146G, the “polymerase ribozyme fitness (log ratio)” value was -3.46.
The same measure for C69U G94C: -1.65; for A12G C99G: -0.551.

For the origin of these results see the RNAGym collection of RNA variant scans (doi:10.1073/pnas.2313332121).
